# Data: article PMC9352680, “A comprehensive thermodynamic model for RNA binding by the Saccharomyces cerevisiae Pumilio protein PUF4”
# T1: PUF4 RNA-binding domain (Saccharomyces cerevisiae, UniProt P25339 537-888)
# T1 sequence: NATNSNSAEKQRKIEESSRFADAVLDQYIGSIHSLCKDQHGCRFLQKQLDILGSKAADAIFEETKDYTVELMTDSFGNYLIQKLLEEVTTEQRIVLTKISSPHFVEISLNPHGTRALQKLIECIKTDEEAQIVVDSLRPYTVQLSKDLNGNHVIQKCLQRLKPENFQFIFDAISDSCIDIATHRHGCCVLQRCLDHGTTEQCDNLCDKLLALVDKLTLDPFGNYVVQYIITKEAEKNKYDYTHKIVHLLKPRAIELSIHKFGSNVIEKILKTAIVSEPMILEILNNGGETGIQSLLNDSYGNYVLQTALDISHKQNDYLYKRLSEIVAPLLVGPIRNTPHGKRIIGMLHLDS
# Target: T1, PUF4 RNA-binding domain
# Assay: Mg; RNA-MaP; 20 mM Na-HEPES pH 7.4, 30 mM KOAc, 0.75 mM MgCl2, 0.1% Tween-20, 5% glycerol, 0.1 mg/mL BSA, 2 mM DTT; 25 C; 0.0125-409.6 nM protein
# Settings: tags: N-His6-TEV cleaved; C-SNAP kept, Cy3B-labelled; label: tethered on chip by stalled RNA polymerase
row,Binder,Kd [nM]
1,Id_ii_S2_P5E.4_K5.3_C5.2_[T-1G]_H5.3_A5.1_F5.1_T5.2_[T11A]_[A12C] (ssRNA) RNA: UUUGAUUAAUAUGAUAUCGUUCUUUCUCGACACUUAUUAACUUCUUUCUCGAUAUCAUAUUAAUCUUU,> 2300
2,Id_ii_S2_P5E.4_K5.3_C5.2_H5.3_A5.1_F5.1_T5.2_[T11C]_[A12T] (ssRNA) RNA: UUUGAUUAAUAUGAUAUCGUUCUUUCUCUACACUUAUUACUUUCUUUCUCGAUAUCAUAUUAAUCUUU,> 2300
3,Id_ii_S2_P5E.4_K5.3_C5.2_[T-1C]_H5.3_A5.1_F5.1_T5.2_[T11A] (ssRNA) RNA: UUUGAUUAAUAUGAUAUCGUUCUUUCUCCACACUUAUUAAAUUCUUUCUCGAUAUCAUAUUAAUCUUU,> 2300
4,Id_ii_S2_P5E.4_K5.3_C5.2_[T-1C]_H5.3_A5.1_F5.1_T5.2_[T11C]_[A12C] (ssRNA) RNA: UUUGAUUAAUAUGAUAUCGUUCUUUCUCCACACUUAUUACCUUCUUUCUCGAUAUCAUAUUAAUCUUU,> 2300
5,Id_ii_S2_P5E.4_K5.3_C5.2_H5.3_A5.1_F5.1_T5.2_[T11A]_[A12T] (ssRNA) RNA: UUUGAUUAAUAUGAUAUCGUUCUUUCUCUACACUUAUUAAUUUCUUUCUCGAUAUCAUAUUAAUCUUU,> 2300
6,Id_ii_S2_P5E.4_K5.3_C5.2_[T-1A]_H5.3_A5.1_F5.1_T5.2_[T11C]_[A12G] (ssRNA) RNA: UUUGAUUAAUAUGAUAUCGUUCUUUCUCAACACUUAUUACGUUCUUUCUCGAUAUCAUAUUAAUCUUU,> 2300
7,Id_ii_S2_P5E.4_K5.3_C5.2_[T-1C]_H5.3_A5.1_F5.1_T5.2_[T11C]_[A12G] (ssRNA) RNA: UUUGAUUAAUAUGAUAUCGUUCUUUCUCCACACUUAUUACGUUCUUUCUCGAUAUCAUAUUAAUCUUU,> 2300
8,Id_ii_S2_P5E.4_K5.3_C5.2_[T-1G]_H5.3_A5.1_F5.1_T5.2_[A12C] (ssRNA) RNA: UUUGAUUAAUAUGAUAUCGUUCUUUCUCGACACUUAUUAUCUUCUUUCUCGAUAUCAUAUUAAUCUUU,> 2300
9,Id_ii_S2_P5E.4_K5.3_C5.2_[T-1A]_H5.3_A5.1_F5.1_T5.2_[T11C] (ssRNA) RNA: UUUGAUUAAUAUGAUAUCGUUCUUUCUCAACACUUAUUACAUUCUUUCUCGAUAUCAUAUUAAUCUUU,> 2300
10,Id_ii_S2_P5E.4_K5.3_C5.2_[T-1G]_H5.3_A5.1_F5.1_T5.2_[A12T] (ssRNA) RNA: UUUGAUUAAUAUGAUAUCGUUCUUUCUCGACACUUAUUAUUUUCUUUCUCGAUAUCAUAUUAAUCUUU,> 2300
11,Id_ii_S2_P5E.4_K5.3_C5.2_[T-1C]_H5.3_A5.1_F5.1_T5.2 (ssRNA) RNA: UUUGAUUAAUAUGAUAUCGUUCUUUCUCCACACUUAUUAUAUUCUUUCUCGAUAUCAUAUUAAUCUUU,651
12,Id_ii_S2_P5E.4_K5.3_C5.2_[T-1C]_H5.3_A5.1_F5.1_T5.2_[T11C] (ssRNA) RNA: UUUGAUUAAUAUGAUAUCGUUCUUUCUCCACACUUAUUACAUUCUUUCUCGAUAUCAUAUUAAUCUUU,> 2300
13,Id_ii_S2_P5E.4_K5.3_C5.2_H5.3_A5.1_F5.1_T5.2_[A12T] (ssRNA) RNA: UUUGAUUAAUAUGAUAUCGUUCUUUCUCUACACUUAUUAUUUUCUUUCUCGAUAUCAUAUUAAUCUUU,2240
14,Id_ii_S2_P5E.4_K5.3_C5.2_[T-1A]_H5.3_A5.1_F5.1_T5.2_[A12C] (ssRNA) RNA: UUUGAUUAAUAUGAUAUCGUUCUUUCUCAACACUUAUUAUCUUCUUUCUCGAUAUCAUAUUAAUCUUU,> 2300
15,Id_ii_S2_P5E.4_K5.3_C5.2_H5.3_A5.1_F5.1_T5.2_[T11A]_[A12C] (ssRNA) RNA: UUUGAUUAAUAUGAUAUCGUUCUUUCUCUACACUUAUUAACUUCUUUCUCGAUAUCAUAUUAAUCUUU,> 2300
16,Id_ii_S2_P5E.4_K5.3_C5.2_[T-1A]_H5.3_A5.1_F5.1_T5.2_[A12T] (ssRNA) RNA: UUUGAUUAAUAUGAUAUCGUUCUUUCUCAACACUUAUUAUUUUCUUUCUCGAUAUCAUAUUAAUCUUU,> 2300
17,Id_ii_S2_P5E.4_K5.3_C5.2_H5.3_A5.1_F5.1_T5.2 (ssRNA) RNA: UUUGAUUAAUAUGAUAUCGUUCUUUCUCUACACUUAUUAUAUUCUUUCUCGAUAUCAUAUUAAUCUUU,548
18,Id_ii_S2_P5E.4_K5.3_C5.2_[T-1A]_H5.3_A5.1_F5.1_T5.2 (ssRNA) RNA: UUUGAUUAAUAUGAUAUCGUUCUUUCUCAACACUUAUUAUAUUCUUUCUCGAUAUCAUAUUAAUCUUU,591
19,Id_ii_S2_P5E.4_K5.3_C5.2_[T-1G]_H5.3_A5.1_F5.1_T5.2 (ssRNA) RNA: UUUGAUUAAUAUGAUAUCGUUCUUUCUCGACACUUAUUAUAUUCUUUCUCGAUAUCAUAUUAAUCUUU,831
20,Id_ii_S2_P5E.4_K5.3_C5.2_[T-1A]_H5.3_A5.1_F5.1_T5.2_[T11A]_[A12T] (ssRNA) RNA: UUUGAUUAAUAUGAUAUCGUUCUUUCUCAACACUUAUUAAUUUCUUUCUCGAUAUCAUAUUAAUCUUU,> 2300
21,Id_ii_S2_P5E.4_K5.3_C5.2_H5.3_A5.1_F5.1_T5.2_[T11C] (ssRNA) RNA: UUUGAUUAAUAUGAUAUCGUUCUUUCUCUACACUUAUUACAUUCUUUCUCGAUAUCAUAUUAAUCUUU,> 2300
22,Id_ii_S2_P5E.4_K5.3_C5.2_H5.3_A5.1_F5.1_T5.2_[T11G]_[A12C] (ssRNA) RNA: UUUGAUUAAUAUGAUAUCGUUCUUUCUCUACACUUAUUAGCUUCUUUCUCGAUAUCAUAUUAAUCUUU,> 2300
23,Id_ii_S2_P5E.4_K5.3_C5.2_[T-1A]_H5.3_A5.1_F5.1_T5.2_[T11C]_[A12T] (ssRNA) RNA: UUUGAUUAAUAUGAUAUCGUUCUUUCUCAACACUUAUUACUUUCUUUCUCGAUAUCAUAUUAAUCUUU,> 2300
24,Id_ii_S2_P5E.4_K5.3_C5.2_H5.3_A5.1_F5.1_T5.2_[A12C] (ssRNA) RNA: UUUGAUUAAUAUGAUAUCGUUCUUUCUCUACACUUAUUAUCUUCUUUCUCGAUAUCAUAUUAAUCUUU,> 2300
25,Id_ii_S2_P5E.4_K5.3_C5.2_[T-1C]_H5.3_A5.1_F5.1_T5.2_[T11G]_[A12C] (ssRNA) RNA: UUUGAUUAAUAUGAUAUCGUUCUUUCUCCACACUUAUUAGCUUCUUUCUCGAUAUCAUAUUAAUCUUU,> 2300

row,Binder,Kd [nM]
1,Id_ii_S2_P5E.4_K5.3_C5.2_[T-1C]_H5.3_A5.1_F5.1_T5.2_[A12C] (ssRNA) RNA: UUUGAUUAAUAUGAUAUCGUUCUUUCUCCACACUUAUUAUCUUCUUUCUCGAUAUCAUAUUAAUCUUU,> 2300
2,Id_ii_S2_P5E.4_K5.3_C5.2_[T-1C]_H5.3_A5.1_F5.1_T5.2_[A12T] (ssRNA) RNA: UUUGAUUAAUAUGAUAUCGUUCUUUCUCCACACUUAUUAUUUUCUUUCUCGAUAUCAUAUUAAUCUUU,1720
3,Id_ii_S2_P5E.4_K5.3_C5.2_H5.3_A5.1_F5.1_T5.2_[T11C]_[A12C] (ssRNA) RNA: UUUGAUUAAUAUGAUAUCGUUCUUUCUCUACACUUAUUACCUUCUUUCUCGAUAUCAUAUUAAUCUUU,> 2300
4,Id_ii_S2_P5E.4_K5.3_C5.2_[T-1A]_H5.3_A5.1_F5.1_T5.2_[T11C]_[A12C] (ssRNA) RNA: UUUGAUUAAUAUGAUAUCGUUCUUUCUCAACACUUAUUACCUUCUUUCUCGAUAUCAUAUUAAUCUUU,> 2300
5,ACAAACGGUAUAUAUAGAACAAAC (ssRNA) [Id_ii_S3_P3E.3_K3.2_C3.2_[C-2G]_[T-1G]_H3.2_A3.1_F3.1_T3.2_[T9G]],128
6,ACAAACGCUAUAUAUAACACAAAC (ssRNA) [Id_ii_S3_P3E.3_K3.2_C3.2_[C-2G]_[T-1C]_H3.2_A3.1_F3.1_T3.2_[T9A]_[A10C]],1130
7,ACAAACGAUAUAUAUAAUACAAAC (ssRNA) [Id_ii_S3_P3E.3_K3.2_C3.2_[C-2G]_[T-1A]_H3.2_A3.1_F3.1_T3.2_[T9A]_[A10T]],115
8,UCUCUUUGUAUUUUGAUCUCUU (ssRNA) [Ib_S1_P5E.1_K5.1_C5.1_H5.1_A5.1_[A7T]_F5.1_[T9G]_T5.1],17.1
9,ACAAACGCUAUAUAUAUCACAAAC (ssRNA) [Id_ii_S3_P3E.3_K3.2_C3.2_[C-2G]_[T-1C]_H3.2_A3.1_F3.1_T3.2_[A10C]],836
10,UCUCUUUGUUUUAUUAUCUCUU (ssRNA) [Ia_S1_P5E.1_K5.1_C5.1_H5.1_[A4T]_A5.1_F5.1_T5.1],24.7
11,UCUCUUUGUAUCAUAAUCUCUU (ssRNA) [Ib_S1_P5E.1_K5.1_C5.1_H5.1_A5.1_[T6C]_F5.1_[T9A]_T5.1],2.4
12,ACAAACGGUAUAUAUAACACAAAC (ssRNA) [Id_ii_S3_P3E.3_K3.2_C3.2_[C-2G]_[T-1G]_H3.2_A3.1_F3.1_T3.2_[T9A]_[A10C]],509
13,ACAAACGGUAUAUAUAUGACAAAC (ssRNA) [Id_ii_S3_P3E.3_K3.2_C3.2_[C-2G]_[T-1G]_H3.2_A3.1_F3.1_T3.2_[A10G]],552
14,ACAAACGCUAUAUAUACUACAAAC (ssRNA) [Id_ii_S3_P3E.3_K3.2_C3.2_[C-2G]_[T-1C]_H3.2_A3.1_F3.1_T3.2_[T9C]_[A10T]],34.2
15,UCUCUUUGUAUAAUAAUCUCUU (ssRNA) [Ib_S1_P5E.1_K5.1_C5.1_H5.1_A5.1_[T6A]_F5.1_[T9A]_T5.1],1.68
16,ACAAACGAUAUAUAUAACACAAAC (ssRNA) [Id_ii_S3_P3E.3_K3.2_C3.2_[C-2G]_[T-1A]_H3.2_A3.1_F3.1_T3.2_[T9A]_[A10C]],969
17,ACAAACGCUAUAUAUAUUACAAAC (ssRNA) [Id_ii_S3_P3E.3_K3.2_C3.2_[C-2G]_[T-1C]_H3.2_A3.1_F3.1_T3.2_[A10T]],45.1
18,UCUCUUUGUAUUCUGAUCUCUU (ssRNA) [Ib_S1_P5E.1_K5.1_C5.1_H5.1_A5.1_[A7C]_F5.1_[T9G]_T5.1],60.1
19,ACAAACGAUAUAUAUAGUACAAAC (ssRNA) [Id_ii_S3_P3E.3_K3.2_C3.2_[C-2G]_[T-1A]_H3.2_A3.1_F3.1_T3.2_[T9G]_[A10T]],62.3
20,ACAAACGAUAUAUAUACAACAAAC (ssRNA) [Id_ii_S3_P3E.3_K3.2_C3.2_[C-2G]_[T-1A]_H3.2_A3.1_F3.1_T3.2_[T9C]],839
21,ACAAACGAUAUAUAUAAGACAAAC (ssRNA) [Id_ii_S3_P3E.3_K3.2_C3.2_[C-2G]_[T-1A]_H3.2_A3.1_F3.1_T3.2_[T9A]_[A10G]],786
22,ACAAACGAUAUAUAUAGGACAAAC (ssRNA) [Id_ii_S3_P3E.3_K3.2_C3.2_[C-2G]_[T-1A]_H3.2_A3.1_F3.1_T3.2_[T9G]_[A10G]],535
23,ACAAACGUUAUAUAUAGUACAAAC (ssRNA) [Id_ii_S3_P3E.3_K3.2_C3.2_[C-2G]_H3.2_A3.1_F3.1_T3.2_[T9G]_[A10T]],292
24,UCUCUUUGUAUUGUCAUCUCUU (ssRNA) [Ib_S1_P5E.1_K5.1_C5.1_H5.1_A5.1_[A7G]_F5.1_[T9C]_T5.1],140
25,ACAAACGAUAUAUAUAAAACAAAC (ssRNA) [Id_ii_S3_P3E.3_K3.2_C3.2_[C-2G]_[T-1A]_H3.2_A3.1_F3.1_T3.2_[T9A]],1080
